Here are results for 14 proteins from patent US20220112269A1 (WISCONSIN ALUMNI RESEARCH FOUNDATION, published 2022).

Non-standard residues stand in square brackets, D forms with d. No end group written: not given here. Hyp = O=C(O)[C@@H]1C[C@@H](O)CN1 Bounds are passed on as bounds.

Data set [1] concerns the molecule itself. Kind of data set: CD, TEM, DLS, self-assembly.
Data set [2] deals with the molecule itself. Kind of data set: CD, TEM, DLS, rheology, self-assembly.
Data set [3] concerns the molecule itself. Description: sedimentation equilibrium AUC, monomer + multimer model, 15000 rpm, 4 C; self-assembly, lower bound. As to the method:
Sedimentation equilibrium experiments were performed at the UW BIF with an XL-A analytical ultracentrifuge from Beckman Coulter (Brea, Calif.) equipped with an An-60 Ti rotor. Samples were prepared at 0.6 mg/mL in 10 mM sodium phosphate buffer, pH 7.0, but were diluted to 0.3 mg/mL prior to the experiment. Sample (100 μL) and matching buffer (110 μL) were placed in a cell with an Epon 12-mm double-sector charcoal-filled centerpiece from Beckman Coulter. Experiments were run at 4° C. for more than 7 days at speeds of 8.8, 15, 25, 36, and 60 k rpm, and gradients recorded at 231 nm were monitored until superimposable 4 h apart. A buffer density of 1.0011 g/mL and a partial specific volume of 0.6955 mL/g calculated based on amino-acid content was used for analysis. Equilibrium gradients at 4° C. were modeled as single and multiple non-interacting species through nonlinear least-squares fits to gradient data. Analysis was performed with programs written for IGOR PRO software from WaveMetrics (Lake Oswego, Oreg.) by Dr. D. R. McCaslin (UW BIF). Non-sedimenting baselines between 0.04-0.07 OD were applied for all samples during analysis.

The data set “CD, DLS, self-assembly” deals with the molecule itself. Kind of data set: CD, DLS, self-assembly.
Data set [4] concerns the molecule itself. Description: CD, TEM, DLS, self-assembly of the disulfide-linked dimer.
Data set [5] concerns the molecule itself. Description: AUC, CD, DLS, self-assembly.
Data set [6] concerns the molecule itself. Description: CD, DLS, rheology, self-assembly.
Data set [7] deals with the molecule itself. Description: AUC, CD, AFM, TEM, self-assembly.
The data set “CD, TEM, self-assembly” concerns the molecule itself. Description: CD, TEM, self-assembly.
Data set [8] concerns the molecule itself. Kind of data set: CD, TEM, DLS, self-association without fibers.
The data set “AUC, CD, self-assembly” concerns the molecule itself. Kind of data set: AUC, CD, self-assembly.

B1: 4sbG-KDO2 (peptide)
peptide: P[Hyp]GPKGPKGPKGPKGP[Hyp]GP[Hyp]GD[Hyp]GD[Hyp]GD[Hyp]GD[Hyp]GP[Hyp]GP[Hyp]GP[Hyp]G
notes: nT=14
B1: the binding result in data set [1] is recorded as “binds”.

B2: 4sbG-OKDO (peptide)
peptide: P[Hyp]GP[Hyp]GPKGPKGPKGPKGP[Hyp]GP[Hyp]GD[Hyp]GD[Hyp]GD[Hyp]GD[Hyp]GP[Hyp]GP[Hyp]G
notes: nT=14
In the case of B2, in data set [2], the binding result is reported as “binds”.

B3: 4sbG-OKD ("OKD") (peptide)
peptide: PXGPXGPXGPXGPKGPKGPKGPKGPXGPXGDXGDXGDXGDXG
modifications: O = 4-hydroxyproline (Hyp)
notes: Synthetic 42-residue collagen-mimetic peptide (nT=14)
Regarding B3, the “Average oligomerization by AUC” value in data set [3] is > 188 -mer.

B4: OKD2-C8 (peptide)
peptide: PXGPXGPCGPKGPKGPKGPKGPXGPXGDXGDXGDXGDXGPXG
modifications: O = 4-hydroxyproline (Hyp)
notes: Single Cys-bearing peptide, nT=14
In the case of B4, in the data set “CD, DLS, self-assembly”, the binding result is reported as “binds”.

B5: OKD2-h22 (peptide)
peptide: PXGPXGPXGPKGPKGPKGPKGXXGPXGDXGDXGDXGDXGPXG
modifications: O = 4-hydroxyproline (Hyp); Hcy = homocysteine
notes: Single Hcy-bearing peptide, nT=14
Take B5: the binding result in “CD, DLS, self-assembly” is “binds”.

B6: 4sbG-OKD2 (peptide)
peptide: PXGPXGPXGPKGPKGPKGPKGPXGPXGDXGDXGDXGDXGPXG
modifications: O = 4-hydroxyproline (Hyp)
notes: nT=14
Take B6: in data set [2], the binding result is reported as “binds”.

B7: OKD2-OKD2 (peptide)
chain 1: PXGPXGPXGPKGPKGPKGPKGXXGPXGDXGDXGDXGDXGPXG
chain 2: PXGPXGPCGPKGPKGPKGPKGPXGPXGDXGDXGDXGDXGPXG
modifications: O = 4-hydroxyproline (Hyp); Cys in an interstrand disulfide bridge with Hcy of the other chain; O = 4-hydroxyproline (Hyp); Hcy = homocysteine, in an interstrand disulfide bridge with Cys of the other chain
notes: Disulfide-linked dimer (nT 14-14)
Regarding B7, the binding result in [4] is recorded as “binds”.

B8: 3sb-KDO (peptide)
peptide: PKGPKGPKGP[Hyp]GP[Hyp]GD[Hyp]GD[Hyp]GD[Hyp]GP[Hyp]GP[Hyp]GP[Hyp]
modifications: not fully specified (C-terminus)
notes: nT=11, printed without the last Gly
On to B8, for which the binding result in [5] is “binds”.

B9: 4sbG-gap4 (peptide)
peptide: P[Hyp]GP[Hyp]GP[Hyp]GPKGPKGPKGP[Hyp]GPKGP[Hyp]GD[Hyp]GD[Hyp]GD[Hyp]GP[Hyp]GD[Hyp]G
notes: nT=14
Turning to B9, the binding result in [6] is recorded as “binds”.

B10: 4sb-OKD (peptide)
peptide: P[Hyp]GP[Hyp]GP[Hyp]GP[Hyp]GPKGPKGPKGPKGP[Hyp]GP[Hyp]GD[Hyp]GD[Hyp]GD[Hyp]GD[Hyp]
notes: nT=14, printed without the last Gly
With B10, in [7], the binding result is reported as “binds”.

B11: 3sbG-OKD (peptide)
peptide: P[Hyp]GP[Hyp]GP[Hyp]GPKGPKGPKGP[Hyp]GP[Hyp]GD[Hyp]GD[Hyp]GD[Hyp]G
notes: nT=11
For B11, in “CD, TEM, self-assembly”, the binding result is given as “binds”.

B12: 4sbG-OKD2ctrl (peptide)
peptide: P[Hyp]GP[Hyp]GPKGPKGPKGP[Hyp]GPKGP[Hyp]GP[Hyp]GD[Hyp]GP[Hyp]GD[Hyp]GD[Hyp]GD[Hyp]G
notes: nT=14
B12: in [8], the binding result is reported as “binds”.

B13: 3sbG-KDO (peptide)
peptide: PKGPKGPKGP[Hyp]GP[Hyp]GD[Hyp]GD[Hyp]GD[Hyp]GP[Hyp]GP[Hyp]GP[Hyp]G
notes: nT=11
On to B13, for which the binding result in “AUC, CD, self-assembly” is on record as “binds”.

B14: 3sb-OKD (peptide)
peptide: P[Hyp]GP[Hyp]GP[Hyp]GPKGPKGPKGP[Hyp]GP[Hyp]GD[Hyp]GD[Hyp]GD[Hyp]
notes: as for B8
With B14, the binding result in the data set “AUC, CD, self-assembly” is given as “binds”.
